From article PMC6899773 (Chemistry (Weinheim an Der Bergstrasse, Germany), 2019)

Target: the molecule itself
Assay: AUC

B1: DC-SIGN extracellular domain (ECD) (domain or fragment, UniProt Q9NNX6 66-404, looked up)
chain: SISQEQSRQDAIYQNLTQLKAAVGELSEKSKLQEIYQELTQLKAAVGELPEKSKLQEIYQELTRLKAAVGELPEKSKLQEIYQELTWLKAAVGELPEKSKMQEIYQELTRLKAAVGELPEKSKQQEIYQELTRLKAAVGELPEKSKQQEIYQELTRLKAAVGELPEKSKQQEIYQELTQLKAAVERLCHPCPWEWTFFQGNCYFMSNSQRNWHDSITACKEVGAQLVVIKSAEEQNFLQLQSSRSNRFTWMGLSDLNQEGTWQWVDGSPLLPSFKQYWNRGEPNNVGEEDCAEFSGNGWNDDKCNLAKFWICKKSAASCSRDEEQFLSPAPATPNPPPA
Q: Which “stoichiometry N” value does the source give for B1 here?
A: The value was 4.
